# B1: Cytoplasmic FMR1-interacting protein 1 (Homo sapiens), Q7L576 (parent)
# chain: MAAQVTLEDALSNVDLLEELPLPDQQPCIEPPPSSLLYQPNFNTNFEDRNAFVTGIARYIEQATVHSSMNEMLEEGQEYAVMLYTWRSCSRAIPQVKCNEQPNRVEIYEKTVEVLEPEVTKLMNFMYFQRNAIERFCGEVRRLCHAERRKDFVSEAYLITLGKFINMFAVLDELKNMKCSVKNDHSAYKRAAQFLRKMADPQSIQESQNLSMFLANHNKITQSLQQQLEVISGYEELLADIVNLCVDYYENRMYLTPSEKHMLLKVMGFGLYLMDGSVSNIYKLDAKKRINLSKIDKYFKQLQVVPLFGDMQIELARYIKTSAHYEENKSRWTCTSSGSSPQYNICEQMIQIREDHMRFISELARYSNSEVVTGSGRQEAQKTDAEYRKLFDLALQGLQLLSQWSAHVMEVYSWKLVHPTDKYSNKDCPDSAEEYERATRYNYTSEEKFALVEVIAMIKGLQVLMGRMESVFNHAIRHTVYAALQDFSQVTLREPLRQAIKKKKNVIQSVLQAIRKTVCDWETGHEPFNDPALRGEKDPKSGFDIKVPRRAVGPSSTQLYMVRTMLESLIADKSGSKKTLRSSLEGPTILDIEKFHRESFFYTHLINFSETLQQCCDLSQLWFREFFLELTMGRRIQFPIEMSMPWILTDHILETKEASMMEYVLYSLDLYNDSAHYALTRFNKQFLYDEIEAEVNLCFDQFVYKLADQIFAYYKVMAGSLLLDKRLRSECKNQGATIHLPPSNRYETLLKQRHVQLLGRSIDLNRLITQRVSAAMYKSLELAIGRFESEDLTSIVELDGLLEINRMTHKLLSRYLTLDGFDAMFREANHNVSAPYGRITLHVFWELNYDFLPNYCYNGSTNRFVRTVLPFSQEFQRDKQPNAQPQYLHGSKALNLAYSSIYGSYRNFVGPPHFQVICRLLGYQGIAVVMEELLKVVKSLLQGTILQYVKTLMEVMPKICRLPRHEYGSPGILEFFHHQLKDIVEYAELKTVCFQNLREVGNAILFCLLIEQSLSLEEVCDLLHAAPFQNILPRVHVKEGERLDAKMKRLESKYAPLHLVPLIERLGTPQQIAIAREGDLLTKERLCCGLSMFEVILTRIRSFLDDPIWRGPLPSNGVMHVDECVEFHRLWSAMQFVYCIPVGTHEFTVEQCFGDGLHWAGCMIIVLLGQQRRFAVLDFCYHLLKVQKHDGKDEIIKNVPLKKMVERIRKFQILNDEIITILDKYLKSGDGEGTPVEHVRCFQPPIHQSLASS
# Variants of: B1
# Settings: with if4e_human EIF4E
row,effect of a mutation on the interaction,Variant
1,decreasing interaction,K725E
2,decreasing interaction,D724A;R726A

# Source: IntAct's records for PubMed 18805096
